Key:
human TGF-β1 [1] = molecular target: T1, human TGF-β1 (human, UniProt P01137 279-390); experiment: cell-based or functional assay
human TGF-β2 = molecular target: T2, human TGF-β2 (human, UniProt P61812 21-414); experiment: SPR, Biacore T200, TGF-β homodimer immobilized on CM5 chip, Ab1 injected, 1:1 model
T2 chain: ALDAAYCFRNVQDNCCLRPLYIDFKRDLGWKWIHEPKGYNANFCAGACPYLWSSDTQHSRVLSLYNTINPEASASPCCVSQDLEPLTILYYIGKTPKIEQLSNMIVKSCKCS

human TGF-β1 [2] = molecular target: T1, human TGF-β1; experiment: as above
[3] = molecular target: T3, murine TGF-β1 (identical in amino acid sequence to rat TGF-β1) (mouse, UniProt P04202 279-390); experiment: as above
T3 construct: mature; also called Murine and Rat TGF-βΙ; murine/rat TGF-β1
T3 sequence (P04202 279-390 limits assumed): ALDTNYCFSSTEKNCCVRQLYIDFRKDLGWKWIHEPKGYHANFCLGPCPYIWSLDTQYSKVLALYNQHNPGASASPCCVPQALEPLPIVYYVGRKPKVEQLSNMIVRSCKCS

T1 sequence (P01137 279-390 limits assumed): as the sequence (P04202 279-390 limits assumed) above, with S75A counted along it

B1: Ab1 (antibody, human IgG4 S228P, kappa)
heavy: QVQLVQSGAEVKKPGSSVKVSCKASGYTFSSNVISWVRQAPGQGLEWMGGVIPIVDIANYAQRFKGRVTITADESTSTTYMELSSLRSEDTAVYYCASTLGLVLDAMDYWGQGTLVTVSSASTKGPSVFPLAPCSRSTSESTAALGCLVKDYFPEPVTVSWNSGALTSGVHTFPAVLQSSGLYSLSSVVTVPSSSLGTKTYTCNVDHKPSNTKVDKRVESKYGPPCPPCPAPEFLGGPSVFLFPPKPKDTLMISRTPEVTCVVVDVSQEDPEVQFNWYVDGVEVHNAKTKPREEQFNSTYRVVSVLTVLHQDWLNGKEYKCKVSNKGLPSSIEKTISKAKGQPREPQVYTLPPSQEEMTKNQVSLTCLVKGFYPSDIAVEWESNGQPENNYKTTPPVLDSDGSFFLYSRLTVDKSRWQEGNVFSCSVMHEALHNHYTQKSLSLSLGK
light: ETVLTQSPGTLSLSPGERATLSCRASQSLGSSYLAWYQQKPGQAPRLLIYGASSRAPGIPDRFSGSGSGTDFTLTISRLEPEDFAVYYCQQYADSPITFGQGTRLEIKRTVAAPSVFIFPPSDEQLKSGTASVVCLLNNFYPREAKVQWKVDNALQSGNSQESVTEQDSKDSTYSLSSTLTLSKADYEKHKVYACEVTHQGLSSPVTKSFNRGEC
notes: also called anti-TGF-β antibody Ab1; pan-TGF-β antibody
NFAT-driven luciferase activity, fold change against isotype control Ab (human TGF-β1 [1]): 1.45 fold change | NFAT-driven luciferase activity, fold change against no Ab control (human TGF-β1 [1]): 1.45 fold change | Kd (human TGF-β2): 3 nM | Kd (human TGF-β1 [2]): 1.48 nM | Kd [3]: 2.8 nM
